Results on one substance are retold here after PMC12316308, “Interactions of substrates and phosphinyl containing inhibitors with bacterial and human zinc proteases” (PLOS One, 2025).

The target of assay [1] is T1, MMP-14 (Homo sapiens, UniProt P50281).
T1 construct: human MT1-MMP/MMP-14 (catalytic domain); purchased Calbiochem (San Diego, CA, USA)
Briefly: Enzymatic activity against ES001 and ES005. It is filed as biochemical. The settings on record: 10 µM substrate, DMSO omitted, n = 4. The protocol: (§1) Determination of reaction velocities. The substrate ES001 was used for APMA activated MMP-9 (MMP-9(A)), Mag-Trypsin activated MMP-9 (MMP-9(MT)) and MMP-14, while the substrate ES005 was used for ALN, PLN and TLN. The reaction velocities/initial rates (v) were determined at 37°C, at an excitation wavelength of 320 nm and an emission wavelength of 405 nm with a slit width of 10 nm using either a Perkin Elmer LS 50 Luminescence spectrometer and the FL WinLab Software Package (Perkin Elmer) or a Clario Star micro plate reader (CLARIOstar® BMG LABTECH).
(§2) To compare the activity of these enzymes against ES001 and ES005 assays were conducted using the same assay condition for all enzymes. The differences from the testing of phosphinic compounds described in the Material and Methods section were that DMSO was omitted, and the concentration of both substrates was 10 µM. A Perkin Elmer LS50 Luminescence Spectrometer was used to measure the activity. Reactions were monitor for one minute, and initial reaction velocities were determined from the activity curves. For each enzyme, the reaction with the presumed optimal substrate was performed first at an arbitrary enzyme concentration, followed immediately by the reaction with the alternate substrate using the same enzyme concentration.

Assay [2] concerns the target T2, MMP-9(A) (Homo sapiens, UniProt P14780).
T2 construct: made in house; host or cells: Sf9 and High Five insect cells
Briefly: Enzymatic activity against ES001 and ES005. The assay is classed as biochemical. The settings on record: 10 µM substrate, DMSO omitted, n = 4. The method, then: as §1, §2

The target of assay [3] is T3, MMP-9(MT) (Homo sapiens, UniProt P14780).
T3 construct: made in house; host or cells: Sf9 and High Five insect cells
Briefly: Enzymatic activity against ES001 and ES005. The assay is classed as biochemical. The following applies: 10 µM substrate, DMSO omitted, n = 4. The method, then: as §1, §2

Assay [4] addresses T4, thermolysin (TLN) (Bacillus thermoproteolyticus, UniProt P00800).
T4 construct: purchased Calbiochem (San Diego, CA, USA)
Description: MALDI-TOF MS analysis of ES005 cleavage. The settings on record: 50 µM ES005, 10 nM TLN, 5 minutes, 37°C. The assay is classed as biochemical. The protocol:
MALDI-TOF MS spectra were recorded for samples containing different enzyme and substrate concentrations at various time points using an Autoflex Speed instrument (Bruker Daltonik GmbH, Leipzig, Germany) equipped with a 355-nm nitrogen laser for desorption and ionization. The ionization matrix, HCCA, was dissolved to 10 mg/mL in a standard solvent (50% MeCN, 47.5% MQ-water, and 2.5% TFA) by vigorous vortexing. Prior to the MALDI run, a main buffer (0.1 M Hepes, pH 7.5, 10 mM CaCl2) was used to dilute TLN to stock concentrations of 1000, 100 and 50 nM, ES005–500 µM, and galardin to 10 µM. All stocks solutions were kept on ice. For the 0 min incubation, 1 µL TLN and 1 µL galardin were preincubated at 37°C in 8 µL of the main buffer for 10 min before adding 1 µL of ES005. For all other time points, 1 µL of ES005 was added to tubes containing 8 µL buffer and 1 µL of TLN at different concentrations, followed by incubation at 37°C. At each timepoint (0, 1, 3, 5, 10, 20, 30, 60, 120 min), 1 µL of galardin was added to stop enzyme activity. After the final incubation, 1 µL aliquots from each timepoint were mixed with an equal volume of HCCA and spotted onto a MALDI plate. […] The resulting mass spectra were analysed using flexAnalysis software (v3.3, Bruker).

Assay [5] has as its target T5, ALN (Staphylococcus aureus, UniProt P81177). The settings on record: 1% DMSO, less certain due to substrate quenching above 10 µM; cited from earlier work.
Assay [6] has as its target T6, PLN (Pseudomonas aeruginosa, UniProt P14756). The settings on record: 1% DMSO, less certain due to substrate quenching above 10 µM; cited from earlier work.
The target in assay [7] is T7, TLN (Bacillus thermoproteolyticus, UniProt P00800).
T7 sequence (P00800 233-548): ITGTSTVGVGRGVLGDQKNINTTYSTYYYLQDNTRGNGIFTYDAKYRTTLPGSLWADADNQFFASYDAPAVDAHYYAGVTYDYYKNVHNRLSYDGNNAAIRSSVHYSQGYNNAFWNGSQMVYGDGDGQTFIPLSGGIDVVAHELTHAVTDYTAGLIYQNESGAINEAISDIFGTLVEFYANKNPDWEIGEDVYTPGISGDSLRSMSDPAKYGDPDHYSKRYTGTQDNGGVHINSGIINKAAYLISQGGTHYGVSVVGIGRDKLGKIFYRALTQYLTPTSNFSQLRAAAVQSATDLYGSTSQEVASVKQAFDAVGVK
The settings on record: 1% DMSO; cited from earlier work.

Assay [8] addresses T7, TLN. Description: Enzymatic activity against ES001 and ES005. It is filed as biochemical. The following applies: 10 µM substrate, DMSO omitted, n = 4. The arrangement: purchased Calbiochem (San Diego, CA, USA). The method, then:
as §1, §2

In assay [9] the target is T5, ALN. The assay is classed as biochemical. Also on record: purchased BioCentrum Ltd (Kraków, Poland). The protocol:
as §1, §2

Assay [10] addresses T6, PLN. The assay is classed as biochemical. Also on record: purchased Calbiochem (San Diego, CA, USA). The method, then:
as §1, §2

The mark [11] stands for this setting: 10 µM substrate, DMSO omitted, n = 4.

The star is where a group is joined. Dnp = O=[N+]([O-])c1ccc(*)c([N+](=O)[O-])c1; Mca = COc1ccc2c(CC(=O)*)cc(=O)oc2c1

T5 sequence (P81177 209-509): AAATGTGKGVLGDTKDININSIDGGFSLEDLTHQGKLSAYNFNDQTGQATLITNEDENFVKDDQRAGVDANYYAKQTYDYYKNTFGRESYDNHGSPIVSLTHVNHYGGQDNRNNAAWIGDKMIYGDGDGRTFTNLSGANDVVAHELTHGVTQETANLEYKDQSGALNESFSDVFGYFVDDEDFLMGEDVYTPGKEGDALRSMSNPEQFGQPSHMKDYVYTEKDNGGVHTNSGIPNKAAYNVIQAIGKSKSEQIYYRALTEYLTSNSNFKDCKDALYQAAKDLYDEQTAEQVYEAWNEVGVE
T6 sequence (P14756 198-498): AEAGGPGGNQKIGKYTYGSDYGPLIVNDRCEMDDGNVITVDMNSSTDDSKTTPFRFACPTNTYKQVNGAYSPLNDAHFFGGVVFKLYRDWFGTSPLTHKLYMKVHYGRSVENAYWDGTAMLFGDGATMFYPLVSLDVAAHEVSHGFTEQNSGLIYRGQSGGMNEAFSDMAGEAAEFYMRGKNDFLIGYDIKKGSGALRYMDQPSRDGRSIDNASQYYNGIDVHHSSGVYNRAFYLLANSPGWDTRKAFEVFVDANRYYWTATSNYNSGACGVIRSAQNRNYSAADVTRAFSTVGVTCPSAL
T3 sequence (P14780 107-707 limits assumed): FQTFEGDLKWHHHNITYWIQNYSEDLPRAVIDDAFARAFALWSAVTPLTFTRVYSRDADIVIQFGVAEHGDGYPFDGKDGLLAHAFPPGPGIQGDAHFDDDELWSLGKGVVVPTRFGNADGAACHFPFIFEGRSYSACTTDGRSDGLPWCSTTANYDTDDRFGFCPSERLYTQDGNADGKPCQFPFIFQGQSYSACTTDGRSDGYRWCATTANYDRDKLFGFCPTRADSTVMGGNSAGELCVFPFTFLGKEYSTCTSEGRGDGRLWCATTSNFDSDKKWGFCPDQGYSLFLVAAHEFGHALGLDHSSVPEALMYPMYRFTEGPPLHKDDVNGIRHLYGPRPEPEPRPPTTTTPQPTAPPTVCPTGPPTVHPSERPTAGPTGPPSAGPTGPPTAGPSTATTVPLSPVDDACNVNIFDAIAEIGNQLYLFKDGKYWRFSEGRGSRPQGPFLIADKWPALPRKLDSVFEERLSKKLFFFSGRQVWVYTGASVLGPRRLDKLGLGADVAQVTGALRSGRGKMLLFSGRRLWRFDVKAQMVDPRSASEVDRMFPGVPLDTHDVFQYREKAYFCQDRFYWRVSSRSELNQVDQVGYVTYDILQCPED
T2 sequence (P14780 107-707 limits assumed): as above

Regarding “Mca-Arg-Pro-Pro-Gly-Phe-Ser-Ala-Phe-Lys(Dnp)-OH (Mca-RPPGFSAFK(Dnp)-OH; SMILES COc1ccc2c(CC(=O)N[C@@H](CCCNC(=N)N)C(=O)N3CCC[C@H]3C(=O)N3CCC[C@H]3C(=O)NCC(=O)N[C@@H](Cc3ccccc3)C(=O)N[C@@H](CO)C(=O)N[C@@H](C)C(=O)N[C@@H](Cc3ccccc3)C(=O)N[C@@H](CCCCNc3ccc([N+](=O)[O-])cc3[N+](=O)[O-])C(=O)O)cc(=O)oc2c1) [ES005, fluorescence quenched bradykinin like substrate used for TLN, PLN and ALN]”, the Enzymatic activity in [1] was 8 ± 2 ΔF/min; in assay [2] it was 5.1 ± 0.2 ΔF/min; in [3], 18 ± 8 ΔF/min; in [8] it was 326 ± 36 ΔF/min; in [9] (setting [11]), 354 ± 61 ΔF/min; in assay [10] (setting [11]), 138 ± 4 ΔF/min. The “cleavage sites (MALDI-TOF MS)” value in assay [4] was “cleaved at three sites: Gly-Phe (m/z 642), Ser-Ala (m/z 876), and Ala-Phe (m/z 947)”. For the same substance, the Km – broadly, the concentration of substrate that gives half-maximal velocity – in assay [5] is 76 ± 7 µM; in assay [6], 24 ± 8 µM; in [7] it was 6 ± 1 µM. For the same substance, the “higher activity for ES005 than ES001” value in assay [9] is recorded as roughly 5 fold; in assay [10] it was “approximately 15 fold”.
